{
  "source": "patent US20210171652A1",
  "about": "(University of Pennsylvania, published 2021)",
  "binders": {"B1": {"name": "KP2-01 Fab/phage clone (anti-Band 3, Wrb) (Fab, V domains shown)", "VH": "EVQLLESGPGLVKPSETLSLTCAVSGDSISSGLGWSWIRQTPGKGLEWIGYIGGSRGNTNYNPSFKSRVTISRDTSKNQFSLRLSSMTAADTAVYYCARRAPYWGYSYLDYWGQGVLVTVSS", "VL": "AAELTQSPATLSLSPGETATLSCRASQSIGSSLAWYQQRPGQAPKLLVHSAYFRAAGIPDRFSGSGSRTDFTLTISSLEPEDVGVYHCQQYNDLLPLTFGGGTKVELK"}, "B2": {"name": "KP3-05 Fab/phage clone (anti-Band 3, Wrb) (Fab, V domains shown)", "VH": "EVQLLESGPGLVKPSETLSLTCTVSGSSLSSAYGWNWIRQPPGKGLEWIGSIGGSRDNTNYNPSLKRRVTISKDTSKNQFSLKLKSVTAADTAVYYCAQRGAYGYSYFDYWGQGVLVAVSS", "VL": "AAELTQSPATLSLSPGETATLSCRASQSVGSSLAWYQQKPGQAPKLLVHSAYFRATGIPDRFSGSGSRTDFTLTISSLEPEDVGVYHCHQYNDLLPLTFGGGTKVEIK"}, "B3": {"name": "KP2-04 Fab/phage clone (anti-Band 3, Wrb) (Fab, V domains shown)", "VH": "EVQLLESGPGLVKPSETLSLTCAVSGYSLSSAYGWNWIRQSPGKGLEWIGSIGGSRDNVNYNPSLKRRVTISKDTSTNHFSLRLSSVTAADTAVYYCVRRATYGNSYFDSWGQGVQVTVSS", "VL": "ELTLTQSPATLSLSPGETATLSCRASQSVGSHLAWYQQKPGQAPKLLVHSAYFRATGIPDRFSGSGSRTDFTLTISSLEPEDVGVYHCQQYNDLLPLTFGGGTKVEIK"}, "B4": {"name": "KP2-02 Fab/phage clone (anti-Band 3, Wrb) (Fab, V domains shown)", "VH": "EVQLLESGPGLVKPSETLSLTCAVSGGSLSGGYDWSWIRQSSRKGLEWIGYIYDSRWTTNYNPSLKKRVTISIDTSKNQFSLNLKSVTAADTAVYYCARRGGYGASYFDLWGQGVLVTVSS", "VL": "AAELTQSPATLSLFPGETATLSCRASQSIGSHLAWYQQKPGQAPKLLVHSVSFRATGIPDRFRGSGSRTDFTLTISSLEPEDVGVYHCQQYNDLLPLTFGGGTKVEIK"}, "B5": {"name": "KP3-13 Fab/phage clone (anti-Band 3, Wrb) (Fab, V domains shown)", "VH": "EVQLLESGPGLVRPSETLSLTCAVSGGSLSGGYDWSWIRQSPRKGLEWIGYIYDSRGTTNYNPSLKRRVTISIDTSKNQFSLNLKSVTAADTAVYYCARRGGYGASYFDLWGQGVLVTVSS", "VL": "AAELTQSPATLSLSPGETATLSCRASQSVGSNLAWYQQKPGQAPKLLVHSASVRATGIPDRFSGSGSRTDFTLTISSLEPEDVGVYHCQQYNDFFPLTFGGGTKVEIK"}, "B6": {"name": "KP3-15 Fab/phage clone (anti-Band 3, Wrb) (Fab, V domains shown)", "VH": "EVQLLESGPGLVKPSETLSLTCTVSGSSLSSAYGWNWIRQPPGKGLEWIGSIGGNRDNTNYNPSLKRRVTISKDTSKNQFSLKLKSVTAADTAVYYCAQRGAYGYSYFDYWGQGVLVAVSS", "VL": "AAELTQSPATLSVSPGEAATLSCRASQTVGRNLAWYQQKPGQAPKLLVHSAHFRATGIPDRFSGSGSGTDFTLTISSLEPEDAGIYHCQQYNDLLPLTFGGGTKVEIK"}, "B7": {"name": "KP2-06 Fab/phage clone (anti-Band 3, Wrb) (Fab, V domains shown)", "VH": "EVQLLESGPGLVKPSETLSLTCTVSGSSLSSAYGWNWIRQPPGKGLEWIGSIGGSRDNTNYNPSLKRRVTISKDTSKNQFSLKLKSVTAADTAVYYCAQRGAYGYSYFDYWGQGVLVAVSS", "VL": "AAELTQSPATLSLSPGETATLSCRASQSVGSSLAWYQQKPGQAPKLLVHSISVRATGIPDRFSGSGSRTDFTLTITSLEPEDVGVYHCQQYNDFFPLTFGGGTKVEIK"}, "B8": {"name": "KP3-18 Fab/phage clone (anti-Band 3, Wrb) (Fab, V domains shown)", "VH": "EVQLLEWGPGLVKPSETLSLTCAVSGYSLSSAYGWNWIRQSPGKGLEWIGSIGGSRDNVNYNPSLKRRVTISKDTSTNHFSLRLSSVTAADTAVYYCVRRATYGNSYFDSWGQGVQVTVSS", "VL": "ELTLTQSPATLSLSPGETATLSCRASQSVGSYLAWYQQKPGQAPKLLVHSAHFRATGIPDRFSGSGSRTDFTLTISSLEPEDVGVYHCQQYNDLLPLTFGGGTKVEIK"}},
  "data": [
    {"molecular_target": "T1, Band 3 / glycophorin A (Wright b, Wrb epitope) on human red blood cells (human, UniProt P02724 20-150)", "T1 construct": "whole, on cells; also called Band3/GPA; AE1", "T1 sequence 1": "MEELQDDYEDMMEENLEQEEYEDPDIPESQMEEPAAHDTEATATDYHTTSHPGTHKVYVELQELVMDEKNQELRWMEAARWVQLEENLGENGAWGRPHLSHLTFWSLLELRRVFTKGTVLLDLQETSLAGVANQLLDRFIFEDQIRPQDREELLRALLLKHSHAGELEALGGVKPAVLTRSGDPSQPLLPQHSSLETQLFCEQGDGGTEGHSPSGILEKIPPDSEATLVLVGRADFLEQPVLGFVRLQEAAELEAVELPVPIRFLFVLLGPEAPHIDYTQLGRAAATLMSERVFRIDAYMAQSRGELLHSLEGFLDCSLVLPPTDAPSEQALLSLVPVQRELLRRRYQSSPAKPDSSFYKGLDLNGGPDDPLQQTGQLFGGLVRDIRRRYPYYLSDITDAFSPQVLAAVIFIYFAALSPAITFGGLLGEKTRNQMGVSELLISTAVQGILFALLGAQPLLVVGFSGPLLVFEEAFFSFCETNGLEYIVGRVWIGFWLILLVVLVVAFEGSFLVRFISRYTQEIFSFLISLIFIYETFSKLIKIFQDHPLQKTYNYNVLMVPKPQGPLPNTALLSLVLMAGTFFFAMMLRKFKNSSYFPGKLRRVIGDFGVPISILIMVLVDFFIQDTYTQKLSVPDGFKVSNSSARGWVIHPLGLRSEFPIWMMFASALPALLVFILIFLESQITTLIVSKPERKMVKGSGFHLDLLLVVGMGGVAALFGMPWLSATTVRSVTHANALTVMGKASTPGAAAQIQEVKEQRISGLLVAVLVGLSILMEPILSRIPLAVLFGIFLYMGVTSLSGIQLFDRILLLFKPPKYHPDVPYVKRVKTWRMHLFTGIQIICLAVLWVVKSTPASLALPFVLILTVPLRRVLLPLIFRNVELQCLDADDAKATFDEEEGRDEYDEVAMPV", "T1 sequence 2": "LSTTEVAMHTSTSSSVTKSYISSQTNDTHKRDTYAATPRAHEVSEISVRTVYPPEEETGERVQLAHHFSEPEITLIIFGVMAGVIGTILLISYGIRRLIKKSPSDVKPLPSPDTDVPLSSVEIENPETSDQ", "assay": "Fab/phage binding assays on human RBCs incl. rare RBC types lacking conserved antigens", "procedure": "An IgG Fab/phage display library was prepared from the peripheral blood lymphocytes of a hyperimmunized macaque using homologous human V-region oligonucleotides (Siegel D L, R. M., Lee H, Blancher A., Production of large repertories of macaque mAbs to human RBCs using phage display. Transfusion, 1999. 39(S10): p. 92S, which is incorporated herein by reference). Fab/phage specific for human RBCs were isolated by panning on intact human RBCs. Monoclonal Fab/phage were grown to produce antibodies for immunoassays and their corresponding DNA was extracted for sequencing. To identify target epitopes, antibodies were screened against RBCs of known serologic phenotypes, including rare cells lacking highly conserved antigens, using standard immunohematologic techniques (Roback, J. D., Technical Manual. 2014: American Association of Blood Banks (AABB), which is incorporated herein by reference.)\nUsing antibody phage display, we identified non-human-primate Fab antibody fragments to antigenic determinants on human RBCs. By panning phage libraries on human RBCs, we produced a Fab/phage preparation with >10⁷ RBC-specific clones capable of agglutinating human RBCs. By performing binding assays against rare RBC types lacking highly conserved antigens and epitopes, we identified the target antigens of >30 of these clones. At least 34 clones bound the Wright b (Wrb) epitope formed by a Band 3/GPA interaction, present on the RBCs of essentially 100% of the human population. The Wrb epitope, determined by the protein sequence of Band 3, is a site of association between Band 3 with GPA, and GPA expression is simultaneously required for its presence on the membrane (Huang C H, Reid M E, Xie S S, Blumenfeld 00. Human red blood cell Wright antigens: a genetic and evolutionary perspective on glycophorin A-band 3 interaction. Blood. 1996; 87(9):3942-3947). At least 3 other clones bound to a highly-conserved epitope Rh17(Hr0) on human RhCE protein, also present on essentially 100% of the human population. Both these targets are specific for erythroid lineage (Rojewski M T, Schrezenmeier H, Flegel W A. Tissue distribution of blood group membrane proteins beyond red cells: evidence from cDNA libraries. Transfus Apher Sci.", "values": [
      {"binder": "B1", "binding result": "binds"},
      {"binder": "B2", "binding result": "binds"},
      {"binder": "B3", "binding result": "binds"},
      {"binder": "B4", "binding result": "binds"},
      {"binder": "B5", "binding result": "binds"},
      {"binder": "B6", "binding result": "binds"},
      {"binder": "B7", "binding result": "binds"},
      {"binder": "B8", "binding result": "binds"}
    ]}
  ]
}
